Laboratory results reported in patent US12415992B2, “Dioxygenase mutants and use thereof in synthesizing (2S,3R)-3-hydroxypipecolic acid” (Jiangnan University, priority 2023, dated 2025).
Positions count from the first letter of the chain named. Numbers in names are those of the source.

Experiments:
[1] = target: T1, Streptomyces sp. strain TH1 L-proline-3-hydroxylase (cis-P3H), wild type (WT), SEQ ID NO. 1 (Streptomyces sp., UniProt P96010); experiment: Kinetic parameters of wild-type L-proline-3-hydroxylase (Michaelis-Menten fit); type: biochemical; conditions: WT pure enzyme; L-pipecolic acid 0.30 to 25 mM, 2-OG 0.30 to 40 mM; pH 6.5, 17° C.; three measurements
T1 sequence (P96010 1-290): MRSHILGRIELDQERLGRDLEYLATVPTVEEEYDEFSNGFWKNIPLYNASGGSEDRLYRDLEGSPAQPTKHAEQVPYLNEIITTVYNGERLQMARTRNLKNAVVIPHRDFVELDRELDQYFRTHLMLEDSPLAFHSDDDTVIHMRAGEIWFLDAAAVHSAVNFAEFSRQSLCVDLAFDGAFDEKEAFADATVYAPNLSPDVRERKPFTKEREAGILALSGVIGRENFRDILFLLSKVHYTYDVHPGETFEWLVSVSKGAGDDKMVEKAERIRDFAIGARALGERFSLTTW
Method: […]
(§1) The reaction was terminated by boiling, and the sample after the termination of reaction was analyzed by high-performance liquid chromatography (HPLC). […]
(§2) Kinetic parameters (Km and Vmax) were determined using a reaction mixture with a final volume of 250 μL. […]

[2] = target: T2, Streptomyces sp. strain TH1 L-proline-3-hydroxylase (cis-P3H, SEQ ID NO. 1) mutant R97M (Streptomyces sp., UniProt P96010, R97M); experiment: Kinetic parameters of L-proline-3-hydroxylase mutant R97M (Michaelis-Menten fit); type: biochemical
T2 sequence (P96010 1-290 R97M): T1 sequence (P96010 1-290) with R97M
Method: […]
as §1, §2

[3] = substrate: O=C(O)CCC(=O)C(=O)O; experiment: purified protein, by the assay type; conditions: L-pipecolic acid 0.30 to 25 mM, 2-OG 0.30 to 40 mM, pH 6.5, 17° C., three measurements
[4] = substrate: O=C(O)[C@@H]1CCCCN1; experiment: Kinetic parameters of L-proline-3-hydroxylase mutant R97M (Michaelis-Menten fit); type: biochemical, Streptomyces sp. strain TH1; conditions: other: R97M pure enzyme, L-pipecolic acid 0.30 to 25 mM, 2-OG 0.30 to 40 mM, pH 6.5, 17° C., three measurements
Excerpt: (§3) The present disclosure further provides a method for constructing the L-proline-3-hydroxylase mutant above, the method includes the following steps: • (1) according to sequence information of the L-proline-3-hydroxylase from Streptomyces sp. strain TH1 disclosed in the NCBI database, performing codon optimization based on codon preference rules of Escherichia coli to obtain an optimized gene of L-proline-3-hydroxylase; connecting the optimized gene of L-proline-3-hydroxylase into an expression vector pET28a to construct an L-proline-3-hydroxylase expression vector; • (2) using genes (involved in site-directed saturation mutagenesis) synthesized by GENCEFE Biotech to prepare an expression vector containing the L-proline-3-hydroxylase mutant; • (3) transforming the above vectors into BL21 engineering bacteria by chemical transformation to express each enzyme protein; culturing the strain in a test tube at 37° C. shaker overnight, transferring the same to an LB liquid culture medium containing 50 mg·L^−1 kanamycin at a 2% inoculation rate, culturing at 37° C. for 2-2.5 hours, and then adding IPTG with a concentration of 0.10 mM to adjust a temperature to 17° C. and culturing for 16 hours; • (4) centrifuging at 8000 r·min^−1 for 5 minutes and collecting bacterial pellets, disrupting cells through an ultrasonic disruption method, centrifuging in a refrigerated centrifuge at 12000 r·min^−1 for 30 minutes to collect supernatant, directly using the supernatant for crude enzyme reaction to explore changes in molar yield under crude enzyme conditions; or purifying the supernatant with a nickel column, and enzymatic properties such as enzyme activity and kinetic parameters of the pure L-proline-3-hydroxylase can be determined. Specifically, the enzyme activity is detected using an Fmoc-Cl pre-column derivatization method, and analyzed by high-performance liquid chromatography (HPLC). The kinetic parameters (Km and Vmax) are measured in a standard enzyme activity assay system, with three separate measurements. Data are fitted to a Michaelis-Menten model using GraphPad Prism, and a protein concentration is kept at 0.50 mg·mL-1 during the measurements.
(§4) Specifically, the reaction under crude enzyme conditions was performed for 12 hours, the reaction under pure enzyme conditions was performed for 15 minutes, and a final protein concentration for the reaction under pure enzyme conditions was 0.5 mg·mL^−1.
as §1, §2

[5] = substrate: O=C(O)[C@@H]1CCCCN1; experiment: Kinetic parameters of wild-type L-proline-3-hydroxylase (Michaelis-Menten fit); type: biochemical, Streptomyces sp. strain TH1; conditions: other: WT pure enzyme, L-pipecolic acid 0.30 to 25 mM, 2-OG 0.30 to 40 mM, pH 6.5, 17° C., three measurements
Excerpt: as §3, §4, §1, §2

For `O=C(O)[C@@H]1CCCCN1` [L-Pip, L-pipecolic acid], the kcat/Km [1] was 19 M⁻¹ s⁻¹, the kcat/Km ([2]; R97M pure enzyme, L-pipecolic acid 0.30 to 25 mM, 2-OG 0.30 to 40 mM, pH 6.5, 17° C., three measurements) was 34.8 M⁻¹ s⁻¹ and the “catalytic efficiency kcat/Km of R97M relative to WT” value ([2]; ratio R97M / WT) was 1.83 times.

B1: Streptomyces sp. strain TH1 L-proline-3-hydroxylase (cis-P3H, SEQ ID NO. 1) mutant R97M (Streptomyces sp.; R97M) (protein)
chain: T1 sequence (P96010 1-290) with R97M
In the case of B1, the Km ([3]; other: R97M pure enzyme) is reported as 1.46 ± 0.01 mM, the Vmax ([3]; other: R97M pure enzyme) is reported as 139 µM/min and the kcat ([3]; other: R97M pure enzyme) is reported as 0.151 s⁻¹. It also gave a kcat/Km ([3]; other: R97M pure enzyme) of 104 M⁻¹ s⁻¹, a Km [4] of 6.83 ± 0.32 mM and a Vmax [4] of 212 µM/min. It also gave a kcat [4] of 0.23 ± 0.00367 s⁻¹ and a kcat/Km [4] of 34.8 ± 1 M⁻¹ s⁻¹.

B2: Streptomyces sp. strain TH1 L-proline-3-hydroxylase (cis-P3H), wild type (WT), SEQ ID NO. 1 (Streptomyces sp.) (protein)
chain: T1 sequence (P96010 1-290)
In the case of B2, the Km [5] is reported as 10.27 ± 0.40 mM, the Vmax [5] is reported as 201 µM/min and the kcat [5] is reported as 0.2038 ± 0.002 s⁻¹. The kcat/Km [5] was 19 ± 0.5 M⁻¹ s⁻¹, the Km ([3]; other: WT pure enzyme) was 0.76 ± 0.02 mM and the Vmax ([3]; other: WT pure enzyme) was 101 µM/min. It also gave a kcat ([3]; other: WT pure enzyme) of 0.102 s⁻¹ and a kcat/Km ([3]; other: WT pure enzyme) of 134 M⁻¹ s⁻¹.
